Results on one molecule are retold here after patent publication US20090208538A1 (ROCKEFELLER UNIVERSITY, published 2009).

For assay [1], the target named is T1, HLA-A*0201 (human).
T1 construct: also called HLA-A2.1; HLA A2.1
Nature of the assay: iTopia net score.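 Note: combined score from peptide binding, ED₅₀ and half-life of peptide complexes with plate-bound HLA-A2 molecules, computed by a proprietary formula in iTopia software.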

The target in assay [2] is T1, HLA-A*0201. Nature of the assay: iTopia affinity.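 Note: peptide affinity for plate-bound HLA-A2 molecules (iTopia system), with ED50 derived from an eight-point serial peptide dilution series run under binding assay conditions.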
The target in assay [3] is T1, HLA-A*0201. Nature of the assay: iTopia binding.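 Note: each peptide tested for binding to HLA-A2 molecules immobilized on plates, using a commercial screening kit run per its supplied protocol and reagents.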
The target in assay [4] is T1, HLA-A*0201. Briefly: iTopia off-rate.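 Note: Half-life of peptide complexes with plate-bound HLA-A2, peptides loaded 18 h at 21 C, washed, then held at 37 C over several time points.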

Where only a bound is given, the exact number is not on record here.

Consider SLTETIECL [cdr2 114-122 SLTETIECL], for which, in assay [1], the iScore is 0.518. The same molecule registered an ED50 in assay [2] of 4 µM. Further, the “binding vs positive control” value in assay [3] is > 30%. The molecule also gave a t1/2 in assay [4] of 9.3.
